{
  "source": "paper PMC9570017",
  "about": "“Unorthodox PCNA Binding by Chromatin Assembly Factor 1” (International Journal of Molecular Sciences, 2022)",
  "molecules": {"B1": {"name": "CAF-1 PIP wild-type peptide (expressed as a GST fusion) (peptide)", "chain": "IKAEKAEITRFFQKPKTPQA", "modifications": "also: expressed as a GST fusion"}, "B2": {"name": "GFP-p150 R426D: GFP fusion of mouse CAF-1 p150 with R426D mutation (protein, UniProt Q9QWF0 1-911, looked up, variant R426D)", "Chromatin assembly factor 1 …": "MLEEPEAATRTAAAVDCKDRPGFPVKRLIQARLPFKRLNLVPKEKVEEDTSPKAAVESKVPDLQLSLGTFESQCHTGSHVGLSTKLVGGQGPIDSFLRATIKPVPSVVIIDLTENCSDIPDSPEGHSELSPDTAGVVTTVEGAAKQQEHSAAELCLLETPSDITCHMEEEPGSPGDPKRTGDCQAGSLQSCPELTPGSRTCPTKELSSWSKAGDLLFIEKVPVVVLEDILATKPSIASLPMMSLDRSVTSESEILESCPEDDSILSHSSTNSSSPTSSPEGPSTPPEHRGGRSSPSTPACRVAKNFVKGSTEKGRSKLHRDREQQREEKEKLREEIRRAKEEARKKKEEEKELKEKERREKREKDEKEKAEKQRLKEEKRKERQEALEAKLEEKRKKEEEKRLREEEKRLREEEKRIKAEKAEITDFFQKPKTPQAPKTLAGSCGKFAPFEIKEHMVLAPRCRAALDQDLCDQLDQLLQQQSVASTFLSDLKSRLPLRSGPTRVCGHDTDIMNRDVVIVESSKVDGVSERKKFGRMKLLQFSENHRPAYWGTWNKKTAIIRPRNPWAQDKDLLDYEVDSDDEWEEEEPGESLSHSEGDEDDDVGEDEDEDDGFFVPHGYLSEDEGVTEECADPENHKVHQKLKAKEWDELLAKGKRFRVLQPVHVGCVWASEAANCTSSDLKLLQQFTACLLDVASPDEPEPGASRREKRDQHILAQLLPLLHGNVNGSKVIIHEFQEQCRRGLLTLPSPTPHLQMPNLEDAVAVPSKARLKRLISENSAYEKRPNFRMCWYVHPEVLKSFGQECLPVPCQWTYITTMPSAPREDSGSASTEGPGQSTPMLLKRKPAATMCITQFMKKRRYDGQVGSGDMDGFQADTEEDEEDDTDCMIIDVPDVGSDVSEAPIPAPTLCK", "modifications": "GFP fusion", "notes": "GFP fusion of mouse CAF-1 p150 with R426D mutation"}},
  "key": {"human PCNA": {"target": "T1, human PCNA (Homo sapiens, UniProt P12004)", "T1 construct": "His6 (C); made in house; host or cells: E. coli Codon Plus BL21(DE3) pLysS", "assay": "Isothermal titration calorimetry (ITC), PIP peptide titrated into wild-type PCNA", "type": "binding", "from_the_text": "The wild-type and R426D peptides were expressed as GST fusions in E. coli, purified to homogeneity (see Materials and Methods) and used in isothermal titration calorimetry (ITC) assays with human PCNA purified from E. coli.\nRecombinant PCNA, PCNA-Y250I, and the PIP peptides (wild-type, R426D) were expressed and purified as described in the Supplementary Materials section—“Expression and purification of recombinant proteins”. The proteins were dialyzed against three 4-litre changes of ITC buffer containing 10 mM sodium phosphate, pH 7.0, and 10 mM NaCl at 4 °C overnight. The concentrations of PCNA and PIP peptides were determined by measuring tyrosine absorption at A280nm. ITC titrations of peptides into PCNA were performed at 23 °C in the ITC buffer (10 mM sodium phosphate, pH 7.0, 10 mM NaCl) using a MicroCal VP-ITC system. The concentrations of injected wild-type and mutant PIP in the syringe varied from 200 to 500 μM, whereas PCNA in the ITC sample cell varied depending on the experiment from 20 to 50 μM PCNA monomer. The protein and peptide samples were degassed before the ITC run. Data analysis was performed using the MicroCal Origin 7.0 software (OriginLab Corporation, Northampton, MA, USA) and all experiments fit the single binding site model.\nSupplementary Materials-Expression and purification of recombinant proteins\nS1. Expression and purification of GST-PIP fusion proteins in Escherichia coli Wild-type p150 PIP and R426D peptides were constructed as GST-fusion proteins with a tyrosine at the C-terminus of the peptide. The C-terminal tyrosine was added to aid in peptide detection during the purification by measuring the absorbance at 280 nm. The DNA fragments encoding the GST fusion proteins were inserted into a pGEX-TEV vector, which is essentially a modified pGEX-2T vector where the thrombin cleavage site was replaced with a TEV cleavage site. The pGEX-TEV plasmid was digested with BamHI and EcoRI and ligated to DNA fragments encoding either the p150 PIP wild-type and R426D. The plasmids pGEX-TEV-PIP wild type and pGEX-TEV-PIP R426D were con-firmed by DNA sequencing and then expressed in Escherichia coli host strain TOPP2 (Strat-agene) with 100 µg/ml ampicillin to saturation at 37°C. The next day, the saturated cells were diluted to 0.05 OD measured at A600 nm and the cells were grown at 37°C until the cells reach the mid-exponential phase of 0.6-0.8 at OD A600 nm. The cells were then in-duced with 1 mM isopropyl-D-thiogalactopyranoside (IPTG) for 4 h. Eight litres of cell culture were grown each for the wild-type and R426D mutant. The cells were then har-vested by centrifugation in an Avanti J-26XP high-performance centrifuge from Beckman Coulter with a fixed angle rotor (JLA-8.1000) at 9000 x g for 30 min at 4°C. The pellet from 1 litre cells equivalent was lysed in 10 ml of lysis buffer containing 20 mM Tris pH 7.5, 1 M NaCl, 0.2 mM EDTA, 1 mM DTT, 50 µg/ml lysozyme, 1 mM AEBSF and one tablet of cOmplete™ Mini EDTA-free Protease Inhibitor Cocktail Tablets (Roche). The cell pellet was sonicated in the lysis buffer on ice, at power output level 4 with 10 seconds pulse on and 30 seconds off at 6 watts using a Misonix 3000 Ultrasonic cell disruptor and wider probe. The lysate was clarified by centrifugation for 30 min in an Avanti J-26XP with a fixed angle rotor 25.50 at 30966 x g at 4°C. The clarified supernatant was incubated on a nutator for 6 h at 4°C with 10 ml of glutathione-Sepharose (GSH) resin (Amersham) pre-washed and equilibrated with lysis buffer. After incubation the GSH resin was pelleted, the unbound supernatant was removed, and the resin was washed thrice with lysis buffer and twice with Tobacco Etch Virus (TEV) protease buffer (20 mM sodium phosphate pH 6.5, 50 mM NaCl, 2 mM DTT). The peptide was cleaved from the GSH resin by incubating in the presence of TEV protease overnight at 4°C. The next day, the supernatant was har-vested by centrifugation, and the GSH resin was washed twice with 20 mM sodium phos- […]"}, "[1]": {"target": "T2, proliferating cell nuclear antigen (PCNA), wild type (human, UniProt P12004 1-261)", "T2 construct": "human PCNA purified from E. coli; Homo-trimeric ring (88.7 kDa as printed); Human is stated for the ITC; In the functional rows PCNA is the endogenous protein of the human HEK-293 S100 extract; also called human PCNA; source: E. coli, purified", "assay": "ITC; peptide (200 to 500 uM in the syringe) titrated into PCNA (20 to 50 uM monomer in the cell); 10 mM sodium phosphate pH 7.0, 10 mM NaCl, 23 °C; single binding site model; apparent Kd", "settings": "both partners purified"}, "mouse NIH3T3 cells": {"test_system": "mouse NIH3T3 cells", "assay": "Localization of GFP-p150 relative to PCNA replication foci in mid S-phase NIH3T3 cells", "type": "cell-based", "settings": "for localization to heterochromatin foci: DAPI staining", "from_the_text": "Cells in early S-phase show numerous small PCNA foci distributed throughout the nucleus. These foci can be resolved from each other using super-resolution microscopy but are difficult to resolve from each other by confocal microscopy. This makes protein localization to early S-phase PCNA foci difficult to assess using conventional tools for microscopy. Mid S-phase is the stage when perinuclear and peri-nucleolar chromatin are replicated. The corresponding PCNA foci are relatively large and distant from each other, making co-localization of a protein of interest with PCNA straightforward. Late S-phase is the stage when pericentric heterochromatin replicates. […] Because of these constraints, we focused our attention on cells with patterns of PCNA foci characteristic of mid S-phase. As reported in previous studies, we observed a distinct immunostaining pattern for PCNA with the monoclonal antibody PC10. During mid S-phase, staining of PCNA with PC10 occurred within foci located around the periphery of the nuclear envelope (Figure 4B, top panel, PC10). […] Asynchronously proliferating mouse NIH 3T3 cells were transduced with lentiviral vectors, and expression of wild-type and mutant forms of GFP-p150 was induced with doxycycline. Cells were fixed and permeabilized for PCNA detection with the PC10 monoclonal antibody. Mid-S phase cells were identified based upon their stereotypical pattern of PCNA staining at the nuclear periphery. […] The Pearson’s correlation coefficient of GFP WT-mp150 was 0.6, and 0.25 for the mutant GFP-p150 R426D. This is consistent with previous observations, that when CAF-1 is unable to bind to PCNA, it prematurely associates with pericentric heterochromatin in early and mid S-phase.\nTo study the localization of GFP CAF-1 p150 wild-type and mutants relative to that of PCNA, cDNAs encoding mouse p150 were cloned into a doxycycline-inducible lentiviral vector pCW-Cas9 plasmid encoding a TetON (minimal CMV) promoter (Addgene plasmid 50661). The Cas9 insert was replaced by wild-type or mutant mouse CAF-1 p150 using the restriction enzymes NheI and BamHI. GFP-p150 wild-type and mutant fusion proteins were excised from the EGFP-C1 vector (Clonetech) using Nhe1 and BamH1 restriction enzymes as previously reported. NheI and BamHI digested fragments were run on 0.8% agarose gel and the corresponding DNA bands: vector—pCW-Cas9 (7036 bp) and inserts—wild-type mp150, R426D (3983 bp) were gel purified using Qiagen DNA extraction spin prep columns. Purified DNAs were ligated using the Takara DNA ligase enzyme, following the manufacturer’s recommended protocol. Positive clones were selected on Luria-Bertani medium containing 100 µg/mL ampicillin, and after DNA isolation, the clones were verified by DNA sequencing. […]"}},
  "note": "No end group written: not given here.",
  "data": [
    {"molecule": "KAEITDFFQKPKT [CAF-1 PIP R426D, R426D p150 PIP expressed as GST fusion with C-terminal tyrosine, TEV-cleaved and purified, used for ITC]", "values": [
      {"measurement": "Kd (result in words)", "setting": "human PCNA; ITC at 296 K, 10 mM Na-phosphate (pH 7.0), 10 mM NaCl, R426D", "value": "No binding"},
      {"measurement": "heat exchange / binding to wild-type PCNA", "setting": "human PCNA; ITC, 23 °C, 10 mM sodium phosphate, pH 7.0, 10 mM NaCl", "value": "did not observe any heat exchange"}
    ]},
    {"molecule": "B1", "values": [
      {"measurement": "Kd", "setting": "[1]", "value": 24, "unit": "µM"},
      {"measurement": "dH", "setting": "[1]", "value": -1.87, "unit": "kcal/mol"},
      {"measurement": "stoichiometry N", "setting": "[1]", "value": 0.83}
    ]},
    {"molecule": "B2", "values": [
      {"measurement": "Pearson’s correlation coefficient", "setting": "mouse NIH3T3 cells; GFP-p150 vs PCNA (PC10), mid S-phase NIH3T3 cells, doxycycline 2 µg/mL", "value": 0.25},
      {"measurement": "localization to heterochromatin foci", "setting": "mouse NIH3T3 cells; mid S-phase", "value": "anomalously found largely within the nuclear interior and the large heterochromatic foci"},
      {"measurement": "localization to heterochromatin foci", "setting": "mouse NIH3T3 cells; mid S-phase, listed as CAF-1 p150 R426D", "value": "more localized to the pericentric heterochromatin"},
      {"measurement": "localization to PCNA foci at nuclear periphery", "setting": "mouse NIH3T3 cells; mid S-phase, confocal microscopy, PC10 staining", "value": "did not co-localize with PCNA foci at the nuclear periphery"}
    ]}
  ]
}
